Consider 16 molecules from EP4339209A1 (MediMabbio Inc., dated 2024).

Assay [1] addresses recombinant human GITR (Cat No. 13643-H08H, Lot No. LC12JA2509, Sino Biological) (human) (UniProt Q9Y5U5). The assay can be described thus: SPR Biacore 8K, single-cycle kinetics, IgG in supernatant captured on Protein A, GITR as analyte. (SPR reads the build-up and loss of mass on a sensor chip optically.)
For assay [2] the target is unchanged. The assay can be described thus: SPR Biacore 8K, multi-cycle kinetics, purified IgG captured on Protein A, GITR as analyte.

B1: anti-GITR 51B VH4/VL4 humanized antibody (human IgG1, kappa) (antibody, V domains shown)
VH: QVQLVQSGAEVKKPGASVKVSCKTTGYRFTGYWINWVRQPPGKGLEWIGEILPGSGATYYSENFKGKVTITADTSTDTAYMELSSLRSEDTAIYYCARKGGYYAMDYWGQGTLVTVSS
VL: EIVLTQSPATLSLSPGERATLSCTASSSVSSSYFHWYQQKPGKAPKLWIYSTSNLQSGVPDRFSGSGSGTDYTLTISSLQAEDVATYYCHLYHRSPRTFGGGTKVEIKR
As for B1, in assay [1], the Kd stood at 0.987 nM, the Relative KD (fold vs VH0/VL0) is 1.7, the off-rate (koff) worked out at 0.00053 s⁻¹ and the kon was determined as 537000 M⁻¹ s⁻¹. Further, in assay [2], the equilibrium dissociation constant (Kd) worked out at 0.829 nM, the Relative KD (fold vs VH0/VL0) came to 1.45, the off-rate (koff) came to 0.000488 s⁻¹ and the association rate constant (kon) stood at 590000 M⁻¹ s⁻¹.

B2: anti-GITR 51B VH3/VL1 humanized antibody (human IgG1, kappa) (antibody, V domains shown)
VH: QVQLVQSGAEVKKPGASVKVSCKTTGYRFTGYWIEWVRQPPGKGLEWIGEILPGSGATYYSENFKGKVTITADTSTDTAYMELSSLRSEDTAIYYCARKGGYYAMDYWGQGTLVTVSS
VL: QIVLTQSPAIMSASLGERVTMSCTASSSVSSSYFHWYQQKPGSAPKLWIYSTSNLASGVPDRFSGSGSGTDYTLTVSSLQAEDVATYYCHLYHRSPRTFGGGTTVDIKR
Take B2: in assay [1], the Kd worked out at 0.693 nM, the Relative KD (fold vs VH0/VL0) was determined as 1.2, the koff is 0.000543 s⁻¹ and the association rate constant (kon) was found to be 784000 M⁻¹ s⁻¹. Also, in assay [2], the Kd worked out at 0.606 nM, the Relative KD (fold vs VH0/VL0) was 1.06, the koff was determined as 0.000482 s⁻¹ and the kon is 796000 M⁻¹ s⁻¹.

B3: anti-GITR 51B VH2/VL1 humanized antibody (human IgG1, kappa) (antibody, V domains shown)
VH: QVQLVQSGAEVKKPGASVKLSCKTTGYRFTGYWIEWVRQPPGKGLEWIGEILPGSGATYYSENFKGKATITADTSTNTAYMEVSSLRSEDTAIYYCARKGGYYAMDYWGQGTLVTVSS
VL: QIVLTQSPAIMSASLGERVTMSCTASSSVSSSYFHWYQQKPGSAPKLWIYSTSNLASGVPDRFSGSGSGTDYTLTVSSLQAEDVATYYCHLYHRSPRTFGGGTTVDIKR
Take B3: in assay [1], the Kd stood at 1.1 nM, the Relative KD (fold vs VH0/VL0) was 1.9, the koff was found to be 0.000734 s⁻¹ and the on-rate (kon) was determined as 665000 M⁻¹ s⁻¹.

B4: anti-GITR 51B VH1/VL4 humanized antibody (human IgG1, kappa) (antibody, V domains shown)
VH: QVQLVQSGAELKKPGASVKLSCKTTGYRFTGYWIEWVRQPPGKGLEWIGEILPGSGATYYSENFKGKATITADTSTNTAYMEVSSLRSGDSAIYYCARKGGYYAMDYWGQGTSVTVSS
VL: EIVLTQSPATLSLSPGERATLSCTASSSVSSSYFHWYQQKPGKAPKLWIYSTSNLQSGVPDRFSGSGSGTDYTLTISSLQAEDVATYYCHLYHRSPRTFGGGTKVEIKR
With B4, in assay [1], the dissociation constant (Kd) stood at 1.31 nM, the Relative KD (fold vs VH0/VL0) stood at 2.3, the off-rate constant (koff) was 0.000616 s⁻¹ and the association rate constant (kon) came out at 469000 M⁻¹ s⁻¹.

B5: anti-GITR 51B VH1/VL5 humanized antibody (human IgG1, kappa) (antibody, V domains shown)
VH: QVQLVQSGAELKKPGASVKLSCKTTGYRFTGYWIEWVRQPPGKGLEWIGEILPGSGATYYSENFKGKATITADTSTNTAYMEVSSLRSGDSAIYYCARKGGYYAMDYWGQGTSVTVSS
VL: EIVLTQSPATLSLSPGERATLSCTASSSVSSSYFHWYQQKPGKAPKLWIYSTSNLESGVPDRFSGSGSGTDYTLTISSLQAEDVATYYCHLYHRSPRTFGGGTKVEIKR
Consider B5, for which, in assay [1], the Kd came to 1.41 nM, the Relative KD (fold vs VH0/VL0) came out at 2.5, the off-rate constant (koff) was 0.000628 s⁻¹ and the on-rate (kon) stood at 445000 M⁻¹ s⁻¹.

B6: anti-GITR 51B VH5/VL5 humanized antibody (human IgG1, kappa) (antibody, V domains shown)
VH: QVQLVQSGAEVKKPGASVKVSCKTTGYRFTGYWIDWVRQPPGKGLEWIGEILPGSGATYYSENFKGKVTITADTSTDTAYMELSSLRSEDTAIYYCARKGGYYAMDYWGQGTLVTVSS
VL: EIVLTQSPATLSLSPGERATLSCTASSSVSSSYFHWYQQKPGKAPKLWIYSTSNLESGVPDRFSGSGSGTDYTLTISSLQAEDVATYYCHLYHRSPRTFGGGTKVEIKR
As to B6, in assay [1], the Kd turned out to be 3.32 nM, the Relative KD (fold vs VH0/VL0) was 5.9, the koff turned out to be 0.000975 s⁻¹ and the on-rate (kon) is 294000 M⁻¹ s⁻¹.

B7: anti-GITR 51B VH2/VL4 humanized antibody (human IgG1, kappa) (antibody, V domains shown)
VH: QVQLVQSGAEVKKPGASVKLSCKTTGYRFTGYWIEWVRQPPGKGLEWIGEILPGSGATYYSENFKGKATITADTSTNTAYMEVSSLRSEDTAIYYCARKGGYYAMDYWGQGTLVTVSS
VL: EIVLTQSPATLSLSPGERATLSCTASSSVSSSYFHWYQQKPGKAPKLWIYSTSNLQSGVPDRFSGSGSGTDYTLTISSLQAEDVATYYCHLYHRSPRTFGGGTKVEIKR
Consider B7, for which, in assay [1], the dissociation constant (Kd) was 1.15 nM, the Relative KD (fold vs VH0/VL0) was 2, the koff was found to be 0.000577 s⁻¹ and the kon worked out at 502000 M⁻¹ s⁻¹.

B8: anti-GITR 51B VH5/VL1 humanized antibody (human IgG1, kappa) (antibody, V domains shown)
VH: QVQLVQSGAEVKKPGASVKVSCKTTGYRFTGYWIDWVRQPPGKGLEWIGEILPGSGATYYSENFKGKVTITADTSTDTAYMELSSLRSEDTAIYYCARKGGYYAMDYWGQGTLVTVSS
VL: QIVLTQSPAIMSASLGERVTMSCTASSSVSSSYFHWYQQKPGSAPKLWIYSTSNLASGVPDRFSGSGSGTDYTLTVSSLQAEDVATYYCHLYHRSPRTFGGGTTVDIKR
Consider B8, for which, in assay [1], the Kd worked out at 1.94 nM, the Relative KD (fold vs VH0/VL0) worked out at 3.4, the koff worked out at 0.000742 s⁻¹ and the on-rate (kon) was 382000 M⁻¹ s⁻¹.

B9: anti-GITR 51B VH3/VL5 humanized antibody (human IgG1, kappa) (antibody, V domains shown)
VH: QVQLVQSGAEVKKPGASVKVSCKTTGYRFTGYWIEWVRQPPGKGLEWIGEILPGSGATYYSENFKGKVTITADTSTDTAYMELSSLRSEDTAIYYCARKGGYYAMDYWGQGTLVTVSS
VL: EIVLTQSPATLSLSPGERATLSCTASSSVSSSYFHWYQQKPGKAPKLWIYSTSNLESGVPDRFSGSGSGTDYTLTISSLQAEDVATYYCHLYHRSPRTFGGGTKVEIKR
Turning to B9, in assay [1], the Kd came to 0.916 nM, the Relative KD (fold vs VH0/VL0) was found to be 1.6, the koff turned out to be 0.000507 s⁻¹ and the kon was 554000 M⁻¹ s⁻¹. In addition, in assay [2], the equilibrium dissociation constant (Kd) was 0.778 nM, the Relative KD (fold vs VH0/VL0) stood at 1.37, the koff worked out at 0.000456 s⁻¹ and the kon was determined as 586000 M⁻¹ s⁻¹.

B10: anti-GITR 51B VH1/VL1 humanized antibody (human IgG1, kappa) (antibody, V domains shown)
VH: QVQLVQSGAELKKPGASVKLSCKTTGYRFTGYWIEWVRQPPGKGLEWIGEILPGSGATYYSENFKGKATITADTSTNTAYMEVSSLRSGDSAIYYCARKGGYYAMDYWGQGTSVTVSS
VL: QIVLTQSPAIMSASLGERVTMSCTASSSVSSSYFHWYQQKPGSAPKLWIYSTSNLASGVPDRFSGSGSGTDYTLTVSSLQAEDVATYYCHLYHRSPRTFGGGTTVDIKR
As to B10, in assay [1], the Kd came to 1.32 nM, the Relative KD (fold vs VH0/VL0) was found to be 2.3, the koff turned out to be 0.000949 s⁻¹ and the kon came to 721000 M⁻¹ s⁻¹.

B11: anti-GITR 51B VH5/VL4 humanized antibody (human IgG1, kappa) (antibody, V domains shown)
VH: QVQLVQSGAEVKKPGASVKVSCKTTGYRFTGYWIDWVRQPPGKGLEWIGEILPGSGATYYSENFKGKVTITADTSTDTAYMELSSLRSEDTAIYYCARKGGYYAMDYWGQGTLVTVSS
VL: EIVLTQSPATLSLSPGERATLSCTASSSVSSSYFHWYQQKPGKAPKLWIYSTSNLQSGVPDRFSGSGSGTDYTLTISSLQAEDVATYYCHLYHRSPRTFGGGTKVEIKR
With B11, in assay [1], the Kd worked out at 1.37 nM, the Relative KD (fold vs VH0/VL0) is 2.4, the off-rate constant (koff) is 0.00149 s⁻¹ and the kon was 1.08e+06 M⁻¹ s⁻¹.

B12: anti-GITR 51B VH2/VL5 humanized antibody (human IgG1, kappa) (antibody, V domains shown)
VH: QVQLVQSGAEVKKPGASVKLSCKTTGYRFTGYWIEWVRQPPGKGLEWIGEILPGSGATYYSENFKGKATITADTSTNTAYMEVSSLRSEDTAIYYCARKGGYYAMDYWGQGTLVTVSS
VL: EIVLTQSPATLSLSPGERATLSCTASSSVSSSYFHWYQQKPGKAPKLWIYSTSNLESGVPDRFSGSGSGTDYTLTISSLQAEDVATYYCHLYHRSPRTFGGGTKVEIKR
On to B12, for which, in assay [1], the Kd turned out to be 1.33 nM, the Relative KD (fold vs VH0/VL0) is 2.3, the dissociation rate constant (koff) was 0.000635 s⁻¹ and the on-rate (kon) was determined as 477000 M⁻¹ s⁻¹.

B13: anti-GITR 51B VH4/VL1 humanized antibody (human IgG1, kappa) (antibody, V domains shown)
VH: QVQLVQSGAEVKKPGASVKVSCKTTGYRFTGYWINWVRQPPGKGLEWIGEILPGSGATYYSENFKGKVTITADTSTDTAYMELSSLRSEDTAIYYCARKGGYYAMDYWGQGTLVTVSS
VL: QIVLTQSPAIMSASLGERVTMSCTASSSVSSSYFHWYQQKPGSAPKLWIYSTSNLASGVPDRFSGSGSGTDYTLTVSSLQAEDVATYYCHLYHRSPRTFGGGTTVDIKR
Take B13: in assay [1], the equilibrium dissociation constant (Kd) worked out at 1.05 nM, the Relative KD (fold vs VH0/VL0) was 1.9, the dissociation rate constant (koff) worked out at 0.00066 s⁻¹ and the on-rate (kon) stood at 627000 M⁻¹ s⁻¹.

B14: anti-GITR 51B VH4/VL5 humanized antibody (human IgG1, kappa) (antibody, V domains shown)
VH: QVQLVQSGAEVKKPGASVKVSCKTTGYRFTGYWINWVRQPPGKGLEWIGEILPGSGATYYSENFKGKVTITADTSTDTAYMELSSLRSEDTAIYYCARKGGYYAMDYWGQGTLVTVSS
VL: EIVLTQSPATLSLSPGERATLSCTASSSVSSSYFHWYQQKPGKAPKLWIYSTSNLESGVPDRFSGSGSGTDYTLTISSLQAEDVATYYCHLYHRSPRTFGGGTKVEIKR
As to B14, in assay [1], the Kd was 1.26 nM, the Relative KD (fold vs VH0/VL0) was 2.2, the koff turned out to be 0.000599 s⁻¹ and the kon amounted to 474000 M⁻¹ s⁻¹.

B15: anti-GITR 51B VH1/VL0 antibody (human IgG1, kappa) (antibody, V domains shown)
VH: QVQLVQSGAELKKPGASVKLSCKTTGYRFTGYWIEWVRQPPGKGLEWIGEILPGSGATYYSENFKGKATITADTSTNTAYMEVSSLRSGDSAIYYCARKGGYYAMDYWGQGTSVTVSS
VL: QIVLTQSPAIMSASLGERVTMTCTASSSVSSSYFHWYQQKPGSSPKLWIYSTSNLASGVPARFSGSGSGTSYSLTVSSLEAEDAATYYCHLYHRSPRTFGGGTTLDIKR
Consider B15, for which, in assay [1], the equilibrium dissociation constant (Kd) turned out to be 1.08 nM, the Relative KD (fold vs VH0/VL0) was found to be 1.9, the off-rate constant (koff) came out at 0.000654 s⁻¹ and the kon was determined as 603000 M⁻¹ s⁻¹.

B16: anti-GITR 51B VH0/VL1 antibody (human IgG1, kappa) (antibody, V domains shown)
VH: QVQLQQSGAELMKPGASVKLSCKTTGYRFTGYWIEWVKQRPGHGLEWIGEILPGSGATYYSENFKGKATFTADTSSNTAYMQVSSLTTGDSAIYYCARKGGYYAMDYWGQGTSVTVSS
VL: QIVLTQSPAIMSASLGERVTMSCTASSSVSSSYFHWYQQKPGSAPKLWIYSTSNLASGVPDRFSGSGSGTDYTLTVSSLQAEDVATYYCHLYHRSPRTFGGGTTVDIKR
For the molecule B16, in assay [1], the dissociation constant Kd was 0.527 nM, the Relative KD (fold vs VH0/VL0) was determined as 0.9, the off-rate constant (koff) was determined as 0.000338 s⁻¹ and the on-rate constant (kon) was 642000 M⁻¹ s⁻¹.

As usually defined, the Kd is the concentration at which binding is half-saturated. For orientation: koff means the rate constant with which the complex falls apart. The kon is the second-order rate constant of association.
